Data as given in PMC3031671.
pKd: −log10 of the molar value.

Biological target: Fibronectin (FN) purified from human plasma (human)
Test: ELISA

| pKd | Substance |
| --- | --- |
| 7.70 | Full-length MMP-2^E404A (catalytically inactive, ligand-binding matrix metalloproteinase-2) (from UniProt P08253 30-660) (enzyme) |
| 7.00 | Isolated recombinant hemopexin-like carboxyl-terminal domain of MMP-2 (PEX) (from UniProt P08253 446-660) (domain or fragment) |
